B1: HigA^19–97 (domain or fragment)
chain: SKEEILESDMRVAIMSELIEARNEKGISQKKLEEMSGVSQPVIARMETGKTSPQLDTVLKVLASLGKTLAVVPLEHEQV
notes: HigA antitoxin, S. pneumoniae strain TIGR4, gene sp_1144, residues 19 to 97; Made 13C/15N-labelled for NMR; tag removed with thrombin (residues of the tag after the thrombin site may remain); also called deletion mutant HigA19-97
B2: X (dsDNA)
DNA 1: GATTTTTTTTGATTTTTTT
DNA 2: AAAAAAATCAAAAAAAATC
B3: Pal-III (dsDNA)
DNA 1: TATTTTAATAACTTAAAAGT
DNA 2: ACTTTTAAGTTATTAAAATA
B4: Streptococcus pneumoniae HigB toxin (enzyme)
chain: MHNIYFYKDKNGNEPVFDYMRELTSKKGKDSRIKLNKINDYIELLSQHGTRAGEPYIKHLDAEIWELRPLRDRILFVAWMDGSFVLLHHFMKRTQKTPKREIEQAKRELADLKERGLDNEK
B5: Pal-II (dsDNA)
DNA 1: AACTTAAAAGTATTTACAAACAATAACTTTTAGGTT
DNA 2: AACCTAAAAGTTATTGTTTGTAAATACTTTTAAGTT
B6: Pal-IV (dsDNA)
DNA 1: TAGGTTATAATTGTTATTAGGAA
DNA 2: TTCCTAATAACAATTATAACCTA
B7: B (dsDNA)
DNA 1: TAATAGAATAATAAGTATCACTCCTTTA
DNA 2: TAAAGGAGTGATACTTATTATTCTATTA
B8: Pal-I (dsDNA)
DNA 1: AGCATCTAGGAAACTAGGTGCT
DNA 2: AGCACCTAGTTTCCTAGATGCT
B9: Streptococcus pneumoniae HigA antitoxin (natural protein)
chain: MKNNAIGSNWKDVRAELFSKEEILESDMRVAIMSELIEARNEKGISQKKLEEMSGVSQPVIARMETGKTSPQLDTVLKVLASLGKTLAVVPLEHEQV
notes: Cloned with Nde1/Xho1 into pET-21a(+); Forms a dimer within the HigB-(HigA)2-HigB heterotetramer; also called WT HigA; full-length HigA

Legend:
[1] = molecular target: the molecule itself; assay: SEC; oligomeric state from a molecular weight comparison with various reference proteins (Fig. S2)
HigB;HigA [2] = molecular target: T1, HigB;HigA (Streptococcus pneumoniae …, UniProt A0A0H2UQ08;A0A0H2UQ20 1-121;1-97, |); assay: EMSA; up to 0.6 mM protein; ITC: 50 mM MES pH 6.0, 100 mM NaCl, 25 C; […]; details: protein: recombinant;recombinant; chain copies: 2;2; blunt
HigA [3] = molecular target: T2, HigA (Streptococcus pneumoniae TIGR4, UniProt A0A0H2UQ20 1-97); assay: ITC; n=0.50; ITC: 50 mM MES pH 6.0, 100 mM NaCl, 25 C; […]; details: protein: recombinant; tags: pET-21a(+), stop codon in reverse primer; chain copies: 2; blunt
HigB;HigA [4] = molecular target: T1, HigB;HigA; assay: ITC; n=0.48; ITC: 50 mM MES pH 6.0, 100 mM NaCl, 25 C; […]; details: protein: recombinant;recombinant; chain copies: 2;2; blunt
[5] = molecular target: B9; assay: cell-based or functional assay
HigB;HigA [6] = molecular target: T1, HigB;HigA; assay: ITC; n=0.49; ITC: 50 mM MES pH 6.0, 100 mM NaCl, 25 C; […]; details: protein: recombinant;recombinant; chain copies: 2;2; blunt
HigA [7] = molecular target: T2, HigA; assay: ITC; n=0.51; ITC: 50 mM MES pH 6.0, 100 mM NaCl, 25 C; […]; details: protein: recombinant; tags: pET-21a(+), stop codon in reverse primer; chain copies: 2; blunt
HigB;HigA [8] = molecular target: T1, HigB;HigA; assay: ITC; n=0.53; ITC: 50 mM MES pH 6.0, 100 mM NaCl, 25 C; […]; details: protein: recombinant;recombinant; chain copies: 2;2; blunt
HigA [9] = molecular target: T2, HigA; assay: as above; details: protein: recombinant; tags: pET-21a(+), stop codon in reverse primer; chain copies: 2; blunt
[10] = molecular target: the molecule itself; assay: crystal structure; HigBA complex, sitting-drop vapor diffusion at 293 K; protein 11 mg/mL in 50 mM MES pH 6.0, 500 mM NaCl; native data to 2.30 Å, SeMet SAD phasing at 2.80 Å

B1
stoichiometry N [1]: 2

B2
binding result (HigB;HigA [2]): no binding

B3
Kd (HigA [3]): 1.34 ± 0.01 µM | Kd (HigB;HigA [4]): 0.2 ± 0.01 µM

B4
ribonuclease activity (fluorescence-labeled RNA substrate) of 2 μM HigBA after addition of 10 μM HigB α2 helix-mimicking peptide, relative to free HigB [5]: ~80%

B5
Kd (HigB;HigA [6]): 0.7 ± 0.08 µM | Kd (HigA [7]): 2.53 ± 0.11 µM

B6
Kd (HigB;HigA [4]): 1.19 ± 0.14 µM

B7
binding result (HigB;HigA [2]): no binding

B8
Kd (HigB;HigA [8]): 0.46 ± 0.03 µM | Kd (HigA [9]): 1.61 ± 0.02 µM

B9
binding result [10]: binds

From article PMC7984235, “Structure‐based design of peptides that trigger Streptococcus pneumoniae cell death” (The Febs Journal, 2020)
